Numbering of substitutions follows the chain as printed. Numbers in names are those of the source. Where two headings read alike, the source gives them in different places.
Tests used:
[1] = tested on: carbapenem-resistant P. aeruginosa strains; assay: Resensitization of carbapenem-resistant clinical strains using carbapenems in combination with lysins; format: cell-based; details: for MIC: Pseudomonas aeruginosa, meropenem alone (GN121 checkerboard)
Procedure: (§1) The checkerboard assays is based on a modification of the CLSI method for MIC determination by broth microdilution (26, 29). Checkerboards were constructed by first preparing columns of a 96-well polypropylene microtiter plate, in which each well had the same amount of antibiotic diluted 2-fold along the horizontal axis. […] Summation fractional inhibitory concentrations (ΣFICs) were calculated for each drug and the minimum ΣFIC value (ΣFICmin) was used to determine synergy. ΣFICs were calculated as follows: ΣFIC=FIC A+FIC B, where FIC A is the MIC of each antibiotic in the combination/MIC of each antibiotic alone, and FIC B is the MIC of each GN lysin in the combination/MIC of each GN lysin alone. The combination is considered synergistic when the ΣFIC is ≤0.5, strongly additive when the ΣFIC is >0.5 to <1, additive with the ΣFIC is 1−<2, and antagonistic when the ΣFIC is ≥2.
Up to seven carbapenem-resistant isolates were assessed. […] See Clinical and Laboratory Standards Institute (CLSI), CLSI. […] M100 Performance Standards for Antimicrobial Susceptibility Testing; 29th Edition. Clinical and Laboratory Standards Institute, Wayne, Pa.

[2] = tested on: P. aeruginosa; assay: Minimal inhibitory concentration (MIC), modified CLSI broth microdilution in CAA or CAA/HuS; format: cell-based, Pseudomonas aeruginosa; details: for MIC (μg/mL) in CAA: CAA media; for MIC (μg/mL in CAA/HuS) / MIC value in CAA/HuS: CAA supplemented with 25% human serum
[3] = tested on: P. aeruginosa strain ATCC 17647; assay: Minimal Biofilm Eradicating Concentration (MBEC), Calgary Biofilm Device; format: cell-based, Pseudomonas aeruginosa; details: 24 h biofilm, 24 h treatment; minimum concentration removing >95% of biofilm biomass (crystal violet)
Description: All samples were examined in triplicate.

[4] = tested on: P. aeruginosa; assay: Time-kill assay of GN lysin activity; format: cell-based, Pseudomonas aeruginosa; details: for Log10 CFU/mL T = 3 hr / Log10 CFU/mL T = l hr: lysin 10 μg/mL, T = 0 7.8; for Log10 CFU/mL T = 3 hr: buffer control 7.2, limit of detection 3.7; for Log10 CFU/mL T = l hr: buffer control 7.7
Procedure: All treatments were incubated at 37° C. with aeration.

[5] = tested on: carbapenem-resistant clinical strain, WC-452; assay: Checkerboard assay to examine synergy with antibiotics in CAA/HuS; format: cell-based, P. aeruginosa; details: for FICI, Amikacin: lysin + amikacin; for FICI, Azithromycin: lysin + azithromycin; for FICI, Aztreonam: lysin + aztreonam; for FICI, Ciprofloxacin: lysin + ciprofloxacin; for FICI, Colistin: lysin + colistin; for FICI, Fosfomycin: lysin + fosfomycin; for FICI, Gentamicin: lysin + gentamicin; for FICI, Imipenem: lysin + imipenem; for FICI, Piperacillin: lysin + piperacillin; for FICI, Rifampicin: lysin + rifampicin; for FICI, Tobramycin: lysin + tobramycin
Procedure: Fractional inhibitor concentration index (FICI) values were determined for all combinations; values of <0.5 indicate synergy.
as §1

[6] = CAA/HuS, ‡ indicates bactericidal activity
[7] = HEPES buffer, ‡ indicates bactericidal activity

## C[C@@H](O)[C@H]1C(=O)N2C(C(=O)O)=C(SCCN=CN)C[C@H]12 [Imipenem, imipenem, reference compound]
[1]; isolate PA19, imipenem in combination with GN121
  IMIPENEM MIC Combination: 1 (S) μg/mL
[1]; isolate PA19, imipenem in combination with GN123
  IMIPENEM MIC Combination: 0.5 (S) μg/mL
[1]; isolate PA20, imipenem in combination with GN121
  IMIPENEM MIC Combination: 0.5 (S) μg/mL
[1]; isolate PA20, imipenem in combination with GN123
  IMIPENEM MIC Combination: 1 (S) μg/mL
[1]; isolate PA21, imipenem in combination with GN121
  IMIPENEM MIC Combination: 1 (S) μg/mL
[1]; isolate PA21, imipenem in combination with GN123
  IMIPENEM MIC Combination: 0.5 (S) μg/mL
[1]; isolate PA22, imipenem in combination with GN121
  IMIPENEM MIC Combination: 2 (S) μg/mL
[1]; isolate PA22, imipenem in combination with GN123
  IMIPENEM MIC Combination: 2 (S) μg/mL
[1]; isolate PA23, imipenem in combination with GN123
  IMIPENEM MIC Combination: 0.25 (S) μg/mL
[1]; isolate PA24, imipenem in combination with GN121
  IMIPENEM MIC Combination: 1 (S) μg/mL
[1]; isolate PA24, imipenem in combination with GN123
  IMIPENEM MIC Combination: 2 (S) μg/mL
[1]; isolate WC-452, imipenem in combination with GN123
  IMIPENEM MIC Combination: 1 (S) μg/mL

## C[C@@H](O)[C@H]1C(=O)N2C(C(=O)O)=C(S[C@@H]3CN[C@H](C(=O)N(C)C)C3)[C@H](C)[C@H]12 [Meropenem, meropenem, reference compound]
[1]; GN121, read-out: Meropenem MIC Alone, isolate PA19
  MIC: 32 µg/mL
[1]; GN121, read-out: Meropenem MIC Alone, isolate PA21
  MIC: 32 µg/mL
[1]; GN121, read-out: Meropenem MIC Alone, isolate PA22
  MIC: 16 µg/mL
[1]; GN121, read-out: Meropenem MIC Alone, isolate PA23
  MIC: 16 µg/mL
[1]; GN121, read-out: Meropenem MIC Alone, isolate PA24
  MIC: 32 µg/mL
[1]; GN121, read-out: Meropenem MIC Alone, isolate WC-452
  MIC: 16 µg/mL
[1]; isolate PA19, meropenem in combination with GN121
  Meropenem MIC Combination: 1 µg/mL
[1]; isolate PA19, meropenem in combination with GN123
  Meropenem MIC Combination: 0.5 (S) μg/mL
[1]; isolate PA20, meropenem in combination with GN121
  Meropenem MIC Combination: 1 µg/mL
[1]; isolate PA20, meropenem in combination with GN123
  Meropenem MIC Combination: 0.5 (S) μg/mL
[1]; isolate PA21, meropenem in combination with GN121
  Meropenem MIC Combination: 2 µg/mL
[1]; isolate PA21, meropenem in combination with GN123
  Meropenem MIC Combination: 1 (S) μg/mL
[1]; isolate PA22, meropenem in combination with GN121
  Meropenem MIC Combination: 1 µg/mL
[1]; isolate PA22, meropenem in combination with GN123
  Meropenem MIC Combination: 1 (S) μg/mL
[1]; isolate PA23, meropenem in combination with GN121
  Meropenem MIC Combination: 2 µg/mL
[1]; isolate PA23, meropenem in combination with GN123
  Meropenem MIC Combination: 0.5 (S) μg/mL
[1]; isolate PA24, meropenem in combination with GN121
  Meropenem MIC Combination: 1 µg/mL
[1]; isolate PA24, meropenem in combination with GN123
  Meropenem MIC Combination: 2 (S) μg/mL
[1]; isolate WC-452, meropenem in combination with GN121
  Meropenem MIC Combination: 1 µg/mL
[1]; isolate WC-452, meropenem in combination with GN123
  Meropenem MIC Combination: 1 (S) μg/mL

B1: GN150: Native lysin, WP_034684053.1/VanY, SEQ ID NO: 19 (protein, listed as Acinetobacter sp.)
chain: MSFKLGKRSLSNLEGVHPDLIKVVKRAIELTECDFTVTEGLRSKERQAQLLKEKKTTTSNSRHLTGHAVDLAAWVNNTVSWDWKYYYQIADAMKKAASELNVSIDWGGDWKKFKDGPHFELTWSKYPIKGAS
[2]
  MIC (μg/mL) in CAA: 2 µg/mL
  MIC (μg/mL in CAA/HuS): 32 µg/mL
[3]
  MBEC: 0.25 µg/mL
[4]; 3-hour timepoint, 10 μg/mL, in either CAA/HuS or HEPES buffer
  bactericidal activity in the time-kill assay format: bactericidal activity
[4]; [6]
  Log10 CFU/mL T = 3 hr: <3.7‡ Log10 CFU/mL
[4]; CAA/HuS
  Log10 CFU/mL T = l hr: 6.0 Log10 CFU/mL
[4]; [7]
  Log10 CFU/mL T = 3 hr: <3.7‡ Log10 CFU/mL
  Log10 CFU/mL T = l hr: 5.7 Log10 CFU/mL
[5]
  synergy with antibiotics in the checkerboard assay: synergize with a range of antibiotics
  FICI, Amikacin: 0.313
  FICI, Azithromycin: 0.125
  FICI, Aztreonam: 0.188
  FICI, Ciprofloxacin: 0.250
  FICI, Colistin: 0.094
  FICI, Fosfomycin: 0.375
  FICI, Gentamicin: 0.375
  FICI, Imipenem: 0.375
  FICI, Piperacillin: 0.500
  FICI, Rifampicin: 0.094
  FICI, Tobramycin: 0.500

B2: GN54: Modified GN4, N-terminal peptide KRKKRKKRK with linker, SEQ ID NO: 8 (protein)
chain: KRKKRKKRKAGAGAGAGAGAGAGAGASMRTSQRGIDLIKSFEGLRLSAYQDSVGVWTIGYGTTRGVTRYMTITVEQAERMLSNDIQRFEPELDRLAKVPLNQNQWDALMSFVYNLGAANLASSTLLKLLNKGDYQGAADQFPRWVNAGGKRLDGLVKRRAAERALFLEPLS
[2]
  MIC (μg/mL) in CAA: 64 µg/mL
  MIC (μg/mL in CAA/HuS): 2 µg/mL
  MIC value in CAA/HuS: 2 µg/mL
[2]; human serum
  activity in serum: does have activity in serum

B3: GN4: Native lysin, YP_002284361.1/Lysozyme, SEQ ID NO: 3; first disclosed in WO/2017/049233 (protein)
chain: MRTSQRGIDLIKSFEGLRLSAYQDSVGVWTIGYGTTRGVTRYMTITVEQAERMLSNDIQRFEPELDRLAKVPLNQNQWDALMSFVYNLGAANLASSTLLKLLNKGDYQGAADQFPRWVNAGGKRLDGLVKRRAAERALFLEPLS
modifications: Pseudomonas phage PAJU2
[2]
  MIC (μg/mL) in CAA: 64 µg/mL
  MIC (μg/mL in CAA/HuS): 16 µg/mL
  MIC value in CAA/HuS: 16 µg/mL
[3]
  MBEC: 1 µg/mL
[4]; [6]
  Log10 CFU/mL T = 3 hr: <3.7‡ Log10 CFU/mL
[4]; CAA/HuS
  Log10 CFU/mL T = l hr: 6.0 Log10 CFU/mL
[4]; [7]
  Log10 CFU/mL T = 3 hr: <3.7‡ Log10 CFU/mL
  Log10 CFU/mL T = l hr: 5.7 Log10 CFU/mL
[5]
  synergy with antibiotics in the checkerboard assay: synergize with a range of antibiotics
  FICI, Amikacin: 0.531
  FICI, Azithromycin: 0.094
  FICI, Aztreonam: 0.156
  FICI, Ciprofloxacin: 0.250
  FICI, Colistin: 0.156
  FICI, Fosfomycin: 0.250
  FICI, Gentamicin: 0.375
  FICI, Imipenem: 0.125
  FICI, Piperacillin: 0.313
  FICI, Rifampicin: 0.156
  FICI, Tobramycin: 0.375

B4: GN146: Modified GN4, amino acid substitutions (K99D, R115H), SEQ ID NO: 4 (protein)
chain: B3 chain with K100D, R116H
[2]
  MIC (μg/mL) in CAA: 2 µg/mL
  MIC (μg/mL in CAA/HuS): 2 µg/mL
  MIC value in CAA/HuS: 2 µg/mL
[3]
  MBEC: 2 µg/mL
[4]; [6]
  Log10 CFU/mL T = 3 hr: 4.0‡ Log10 CFU/mL
[4]; CAA/HuS
  Log10 CFU/mL T = l hr: 5.9 Log10 CFU/mL
[4]; [7]
  Log10 CFU/mL T = 3 hr: <3.7‡ Log10 CFU/mL
  Log10 CFU/mL T = l hr: 6.7 Log10 CFU/mL

B5: GN94: Modified GN37, N-terminal peptide KFFKFFKFFK with linker, SEQ ID NO: 14 (protein)
chain: KFFKFFKFFKAGAGAGAGAGAGAGAGASMTYTLSKRSLDNLKGVHPDLVAVVHRAIQLTPVDFAVIEGLRSVSRQKELVAAGASKTMNSRHLTGHAVDLAAYVNGIRWDWPLYDAIAVAVKAAAKELGVAIVWGGDWTTFKDGPHFELDRSKYR
[2]
  MIC (μg/mL) in CAA: 16 µg/mL
  MIC (μg/mL in CAA/HuS): 2 µg/mL
  MIC value in CAA/HuS: 2 µg/mL
[3]
  MBEC: 2 µg/mL
[4]; [6]
  Log10 CFU/mL T = 3 hr: <3.7‡ Log10 CFU/mL
[4]; CAA/HuS
  Log10 CFU/mL T = l hr: 6.4 Log10 CFU/mL
[4]; [7]
  Log10 CFU/mL T = 3 hr: <3.7‡ Log10 CFU/mL
  Log10 CFU/mL T = l hr: 6.0 Log10 CFU/mL

B6: GN156: Modified GN4, addition of N-terminal peptide GPRRPRRPGRRAPV, SEQ ID NO: 6 (protein)
chain: GPRRPRRPGRRAPVMRTSQRGIDLIKSFEGLRLSAYQDSVGVWTIGYGTTRGVTRYMTITVEQAERMLSNDIQRFEPELDRLAKVPLNQNQWDALMSFVYNLGAANLASSTLLKLLNKGDYQGAADQFPRWVNAGGKRLDGLVKRRAAERALFLEPLS
[2]
  MIC (μg/mL) in CAA: 32 µg/mL
  MIC (μg/mL in CAA/HuS): 2 µg/mL
[3]
  MBEC: 0.5 µg/mL
[4]; [6]
  Log10 CFU/mL T = 3 hr: <3.7‡ Log10 CFU/mL
[4]; CAA/HuS
  Log10 CFU/mL T = l hr: 5.7 Log10 CFU/mL
[4]; [7]
  Log10 CFU/mL T = 3 hr: <3.7‡ Log10 CFU/mL
  Log10 CFU/mL T = l hr: 5.7 Log10 CFU/mL

Reference: US20220160843A1 (priority 2019, published 2022)
